In the supplement of paper PMC10567573 one finds protein stability index data, which are given here for 94 variants.

The labels stand for the following.
B1: ATL3 (parent)
chain: HFKKTKKMGGKDFSFRYQQELEEE
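Also: lentivirally expressed fusions sorted by FACS into six bins by GFP to DsRed ratio, PSI derived from sequencing read proportions per bin multiplied by bin number.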

Variants of B1 are the subject of this data set. The data set can be described thus: protein stability index of a GFP-peptide fusion (GPS, HEK-293T) (PSI 1-6); higher = more stable. To be noted: c terminus: a fixed tail appended.
With HFKKTKKGGGKDFSFRYQQELEEE [M8G], the protein stability index is 3.01.

On to HFKKTKKEGGKDFSFRYQQELEEE [M8E], for which the protein stability index stood at 2.72.

HFKKTKKYGGKDFSFRYQQELEEE [M8Y]: the protein stability index was found to be 1.99.

Regarding HFKKTKKCGGKDFSFRYQQELEEE [M8C], the protein stability index worked out at 2.24.

As to HFKKTKKWGGKDFSFRYQQELEEE [M8W], the protein stability index was found to be 2.35.

Consider HFKKTKKPGGKDFSFRYQQELEEE [M8P], for which the protein stability index is 1.92.

For HFKKTKKFGGKDFSFRYQQELEEE [M8F], the protein stability index worked out at 1.68.

Turning to HFKKTKKTGGKDFSFRYQQELEEE [M8T], the protein stability index is 2.63.

With HFKKTKKKGGKDFSFRYQQELEEE [M8K], the protein stability index was determined as 3.19.

With HFKKTKKRGGKDFSFRYQQELEEE [M8R], the protein stability index was determined as 2.81.

For HFKKTKKIGGKDFSFRYQQELEEE [M8I], the protein stability index worked out at 1.96.

HFKKTKKLGGKDFSFRYQQELEEE [M8L]: the protein stability index was 1.48.

With HFKKTKKAGGKDFSFRYQQELEEE [M8A], the protein stability index came out at 2.39.

Take HFKKTKKNGGKDFSFRYQQELEEE [M8N]: the protein stability index was determined as 2.4.

As to HFKKTKKVGGKDFSFRYQQELEEE [M8V], the protein stability index was found to be 1.64.

Turning to HFKKTKKHGGKDFSFRYQQELEEE [M8H], the protein stability index came to 2.29.

Consider HFKKTKKSGGKDFSFRYQQELEEE [M8S], for which the protein stability index was determined as 2.77.

HFKKTKKDGGKDFSFRYQQELEEE [M8D]: the protein stability index turned out to be 2.14.

Take HFKKTKKQGGKDFSFRYQQELEEE [M8Q]: the protein stability index was 2.21.

With HFKKTKPMGGKDFSFRYQQELEEE [K7P], the protein stability index was 2.56.

Consider HFKKTKHMGGKDFSFRYQQELEEE [K7H], for which the protein stability index came out at 2.32.

Regarding HFKKTKLMGGKDFSFRYQQELEEE [K7L], the protein stability index turned out to be 2.1.

For the variant HFKKTKAMGGKDFSFRYQQELEEE [K7A], the protein stability index was determined as 2.02.

With HFKKTKMMGGKDFSFRYQQELEEE [K7M], the protein stability index is 2.88.

In the case of HFKKTKTMGGKDFSFRYQQELEEE [K7T], the protein stability index worked out at 1.9.

As for HFKKTKGMGGKDFSFRYQQELEEE [K7G], the protein stability index is 1.8.

Regarding HFKKTKSMGGKDFSFRYQQELEEE [K7S], the protein stability index was found to be 2.04.

With HFKKTKVMGGKDFSFRYQQELEEE [K7V], the protein stability index worked out at 1.84.

For the variant HFKKTKIMGGKDFSFRYQQELEEE [K7I], the protein stability index is 2.9.

As to HFKKTKCMGGKDFSFRYQQELEEE [K7C], the protein stability index came out at 2.44.

Regarding HFKKTKRMGGKDFSFRYQQELEEE [K7R], the protein stability index came to 1.65.

As to HFKKTKNMGGKDFSFRYQQELEEE [K7N], the protein stability index amounted to 2.11.

For the variant HFKKTKQMGGKDFSFRYQQELEEE [K7Q], the protein stability index is 2.54.

Take HTKKTKKMGGKDFSFRYQQELEEE [F2T]: the protein stability index stood at 1.87.

Consider HVKKTKKMGGKDFSFRYQQELEEE [F2V], for which the protein stability index amounted to 2.62.

HSKKTKKMGGKDFSFRYQQELEEE [F2S]: the protein stability index worked out at 1.91.

As for HMKKTKKMGGKDFSFRYQQELEEE [F2M], the protein stability index came to 2.76.

Take HPKKTKKMGGKDFSFRYQQELEEE [F2P]: the protein stability index came out at 1.26.

In the case of HLKKTKKMGGKDFSFRYQQELEEE [F2L], the protein stability index came to 1.39.

Turning to HGKKTKKMGGKDFSFRYQQELEEE [F2G], the protein stability index came out at 1.4.

Consider HEKKTKKMGGKDFSFRYQQELEEE [F2E], for which the protein stability index was determined as 1.09.

Turning to HHKKTKKMGGKDFSFRYQQELEEE [F2H], the protein stability index worked out at 1.62.

In the case of HIKKTKKMGGKDFSFRYQQELEEE [F2I], the protein stability index was determined as 2.65.

For HCKKTKKMGGKDFSFRYQQELEEE [F2C], the protein stability index stood at 1.8.

Take HRKKTKKMGGKDFSFRYQQELEEE [F2R]: the protein stability index came to 2.64.

Regarding HQKKTKKMGGKDFSFRYQQELEEE [F2Q], the protein stability index amounted to 3.05.

Turning to HYKKTKKMGGKDFSFRYQQELEEE [F2Y], the protein stability index was 2.1.

In the case of HAKKTKKMGGKDFSFRYQQELEEE [F2A], the protein stability index is 1.48.

Consider HDKKTKKMGGKDFSFRYQQELEEE [F2D], for which the protein stability index amounted to 2.65.

Regarding HNKKTKKMGGKDFSFRYQQELEEE [F2N], the protein stability index was 2.28.

On to TFKKTKKMGGKDFSFRYQQELEEE [H1T], for which the protein stability index is 3.89.

On to LFKKTKKMGGKDFSFRYQQELEEE [H1L], for which the protein stability index was found to be 1.65.

For NFKKTKKMGGKDFSFRYQQELEEE [H1N], the protein stability index was determined as 2.03.

KFKKTKKMGGKDFSFRYQQELEEE [H1K]: the protein stability index was 3.03.

For IFKKTKKMGGKDFSFRYQQELEEE [H1I], the protein stability index stood at 1.36.

For FFKKTKKMGGKDFSFRYQQELEEE [H1F], the protein stability index came out at 1.88.

For AFKKTKKMGGKDFSFRYQQELEEE [H1A], the protein stability index was found to be 2.35.

PFKKTKKMGGKDFSFRYQQELEEE [H1P]: the protein stability index stood at 3.17.

Regarding WFKKTKKMGGKDFSFRYQQELEEE [H1W], the protein stability index was found to be 2.22.

As for VFKKTKKMGGKDFSFRYQQELEEE [H1V], the protein stability index was 2.26.

As for SFKKTKKMGGKDFSFRYQQELEEE [H1S], the protein stability index is 1.73.

As for MFKKTKKMGGKDFSFRYQQELEEE [H1M], the protein stability index worked out at 2.32.

Regarding HFKATKKMGGKDFSFRYQQELEEE [K4A], the protein stability index was 2.72.

With HFKTTKKMGGKDFSFRYQQELEEE [K4T], the protein stability index was 2.1.

Take HFKCTKKMGGKDFSFRYQQELEEE [K4C]: the protein stability index was 2.55.

As to HFKMTKKMGGKDFSFRYQQELEEE [K4M], the protein stability index was 2.26.

Consider HFKGTKKMGGKDFSFRYQQELEEE [K4G], for which the protein stability index was determined as 2.67.

On to HFKQTKKMGGKDFSFRYQQELEEE [K4Q], for which the protein stability index worked out at 1.75.

As for HFKPTKKMGGKDFSFRYQQELEEE [K4P], the protein stability index turned out to be 1.82.

With HFKYTKKMGGKDFSFRYQQELEEE [K4Y], the protein stability index came to 1.23.

For the variant HFKVTKKMGGKDFSFRYQQELEEE [K4V], the protein stability index turned out to be 1.62.

In the case of HFKNTKKMGGKDFSFRYQQELEEE [K4N], the protein stability index worked out at 2.26.

In the case of HFKSTKKMGGKDFSFRYQQELEEE [K4S], the protein stability index stood at 3.01.

Turning to HFKITKKMGGKDFSFRYQQELEEE [K4I], the protein stability index was determined as 1.66.

For HFKDTKKMGGKDFSFRYQQELEEE [K4D], the protein stability index worked out at 3.67.

HFKLTKKMGGKDFSFRYQQELEEE [K4L]: the protein stability index was found to be 2.6.

Take HFKWTKKMGGKDFSFRYQQELEEE [K4W]: the protein stability index turned out to be 1.61.

Turning to HFKHTKKMGGKDFSFRYQQELEEE [K4H], the protein stability index is 2.1.

For HFKETKKMGGKDFSFRYQQELEEE [K4E], the protein stability index is 1.6.

In the case of HFKKVKKMGGKDFSFRYQQELEEE [T5V], the protein stability index stood at 2.75.

For the variant HFKKMKKMGGKDFSFRYQQELEEE [T5M], the protein stability index stood at 2.57.

On to HFKKCKKMGGKDFSFRYQQELEEE [T5C], for which the protein stability index was found to be 2.37.

For the variant HFKKNKKMGGKDFSFRYQQELEEE [T5N], the protein stability index turned out to be 2.58.

HFKKRKKMGGKDFSFRYQQELEEE [T5R]: the protein stability index is 1.31.

With HFKKWKKMGGKDFSFRYQQELEEE [T5W], the protein stability index came to 3.29.

Take HFKKFKKMGGKDFSFRYQQELEEE [T5F]: the protein stability index amounted to 2.44.

Take HFKKIKKMGGKDFSFRYQQELEEE [T5I]: the protein stability index amounted to 2.17.

With HFKKAKKMGGKDFSFRYQQELEEE [T5A], the protein stability index came out at 1.5.

In the case of HFKKKKKMGGKDFSFRYQQELEEE [T5K], the protein stability index was 2.22.

Consider HFKKPKKMGGKDFSFRYQQELEEE [T5P], for which the protein stability index was determined as 1.78.

Take HFKKHKKMGGKDFSFRYQQELEEE [T5H]: the protein stability index stood at 1.83.

On to HFKKSKKMGGKDFSFRYQQELEEE [T5S], for which the protein stability index was 2.26.

Consider HFKKYKKMGGKDFSFRYQQELEEE [T5Y], for which the protein stability index was 1.75.

In the case of HFKKQKKMGGKDFSFRYQQELEEE [T5Q], the protein stability index stood at 1.8.
